Test: soluble on expression in E. coli; label from the status in PepcDB or PDB records

Sequence	soluble on expression in E. coli
MSLKKQLVKTDGHNQLDQPNTKALQLKKKQFNSGVRVTSEISFLREVIAHHPGIETERVIDNQTFGSAMYLERAQKEHQLFIKILRQHGTKVHYLQDLLLEALSAADPNVRQDFIKNFLLESGIKSVSTFEACLNFFRSLDSLVDVIKVMFGGIKVSDVPPITPQRFADIHVSNSPFLIKPLSFSLYPHKFFNTLGTGVALFVTNDSELKRHSLVYEYIMRFHPRFDGVKLYTNRDFKNCLINSSDIIQISNEILLIGISHDTDVLGIESLARNLLSDHTNPIKQIIAINIHKFGAKTNLNKLIAMVDVDKFIIARKVLQATEIFELTATAQRDVDGLAQIKFKPLKFNFGEIIEAIIDKQPRFVIIGGGDEVAERKELLDCGMGVLNLSPGEIVVFDRNHYTNNLLNELGLIIHKIPASELSRGPSGPLEMVCSLWREEGHHHHHH	soluble
MSLKKRIPTLLATMIATALYSQQGLAADLASQCMLGVPSYDRPLVQGDTNDLPVTINANHAKGDYPDDAVFTGSVDIMQGNSRLQADEVQLHQKEAPGQPEPVRTVDALGNVHYDDNQVILKGPKGWANLNTKDTNVWEGDYQMVGRQGRGKADLMKQRGENRYTILDNGSFTSCLPGSDTWSVVGSEIIHDREEQVAEIWNARFKVGPVSIFYSPYLQLPVGDKRRSGFLIPNAKYTTTNYFEFYLPYYWNIAPNMDATITPHYMHRRGNIMWENEFRYLSQAGAGLMELDYLPSDKVYEDEHPNDDSSRRWLFYWNHSGVMDQVWRFNVDYTKVSDPSYFNDFDNKYGSSTDGYATQKFSVGYAVQNFNATVSTKQFQVFSEQNTSSYSAEPQLDVNYYQNDVGPFDTRIYGQAVHFVNTRDDMPEATRVHLEPTINLPLSNNWGSINTEAKLLATHYQQTNLDWYNSRNTTKLDESVNRVMPQFKVDGKMVFERDMEMLAPGYTQTLEPRAQYLYVPYRDQSDIYNYDSSLLQSDYSGLFRDRTYGGLDRIASANQVTTGVTSRIYDDAAVERFNISVGQIYYFTESRTGDDNITWENDDKTGSLVWAGDTYWRISERWGLRGGIQYDTRLDNVATSNSSIEYRRDEDRLVQLNYRYASPEYIQATLPKYYSTAEQYKNGISQVGAVASWPIADRWSIVGAYYYDTNANKQADSMLGVQYSSCCYAIRVGYERKLNGWDNDKQHAVYDNAIGFNIELRGLSSNYGLGTQEMLRSNILPYQNTLEGHHHHHH	soluble
MSLKKSDATGGEVASAEPIAKIPAPAGKAWTETFSVTPDGGYLLGNPDAPIKLIEFGALSCSHCAEFSEKGFPKLRDEYIASGRVSYELRLFLLNALDMPAVLLATCGAPEAVIPLSEQFWAWQPNMFSNLQKDEAAFQQISNLPAEKRFAGIAQLGGLSEFFASRGIAAAQGATCLADTAKATRLATVNDQWGKEYDITGTPTFFLNGSKTGVATWAELEPMLQKAGAREGHHHHHH	soluble
MSLKLDSKGPVLFKQKRVGINKTHFHILKFRTMRIDTPKDTPTHLLKNPDQYITKMGKFLRKTSLDELPQIWNIFVGHMSIIGPRPALWNQYDLIVERDKYGANDVPPGLTGWAQINGRDELPIEVKAKLDGEYVQNIGFWMDVKCFVGTIWSVLRSDGVVEGGTGSAKKEIASTKRREGHHHHHH	soluble
MSLKLIGMLDSPYVRRVAISLKSLGLPFEHHSLSVFSTFEQFKAINPVVKAPTLVCEGGEVLMDSSLIIDYLETLAGPQRSLMPTALPQRLRELRLVGLALAACEKSVQIVYERNLRPAEKQHGPWLERVGGQLQAAYGELEQELQKQPLPRDGSLGQAGISLAVAWSFSQMMVADQFNPGQFPAVRGFAEYAEQLPVFLATPATEGHHHHHH	soluble
MSLKLNWDKAIDKAIKRYGLRVEPQLISYFSKAGVSYPPKEIALLAFKSERKVELWAKNPSQEWTHIHDYPLTGFSGRLGPKLRENDKQIPEGIYKLVNFNPFSSMHLSMMINYPNSFDRQKGYMDGRKELGNNIFIHGKNLSVGCLAVGDLAIDQLFILARRVGLKNIQVIIAPNDLRYQKPSTSTFAQPRWLPELYKQITESLKPFKKTKFTAEGHHHHHH	soluble
MSLKLRGHHLICLQFFRGEGYSGEFVENVKKIMERLESGETVEVVAGVDDICVACPYNRGYCGKDETSEERVREMDKAAVRLLGVSEKTTWREVAERIEKVLNEWRVFCEDCDWKEVCYGEGHHHHHH	soluble
MSLKLVGIIGSIADESYNRKLMLYIASHFKETIDIEILDIRDVPMFRVGMEMGPAVEYLNKKISAADGVIIATPEHNHTTTAALKSVIEWLSSSVHPFADKPVLLVGASYFEQGSGRAQLDLRQILESPGVNALVMPKDEFLLGNVKSAFDENGNLKEARTVGFLESVMGNFLKWIKVLKAMKKNNDVKGDWESEDLTASQEIDTTVKGVDMKAEDWVEQAAAKTNAVEGDTYVKLDRGLLTVNQLNWFLNTMPVELTFADDNNQFIYYNRMDENPKDMLAPRQPKQVGDPLESVHPERALKGVKHVVHTLRTGETDLVSMPVPFINKVNEKHVMHYYKAMHDEDGRYRGINEWVVDIWPVVESYLKMTGQKLVADENAKVDEGHHHHHH	soluble
MSLKPLIKIETERTSLIYQVADNGRLYQKYLGKKLNHDSDIQYLPQGTEAYLTHGMEDYFEPAIHIRHNDNNSSLLLKYVDHSSNAIGNGVNETVITLKDDKYPVTVKLHYVAYGKENIIRTFTEISHEEKKPVILCKYASSMLHLNSSKYFLTEFSGDWAHEANVTERELAFGKKVIDTKLGARANMFVSPFFQLALDNPSQENAGEVLVGTIGWTGNFRFTFEVDNKNELRIISGINPYDSEYSLPAREVFRTPDFYFTYSTQGKGEASRNFHDWARNHQVKNGNDTRMTLLNNWESTYFDFDENKLIGLMDEATKLGVDMFLLDDGWFANKYPRSSDHQGLGDWEETADKLPNGVGRLVEEAQKKGIKFGIWIEPEMVNPKSELYEKHKDWVIHLPNRDEYYFRNQMVLDLSNPKVQDHVFGVVDNLMTKYPGIAFFKWDCNSPITNIYSVYLKDKQSHLYVDYVRGLYKVLDRIKAKYPNLPMMLCAGGGGRSDYEALKYFTEFWPSDNTDPIERLFIQWGYSQIFPSKTLCAHVTTWNRGTSIKFRTDVAMMCKLGFDIKLEDMNQNEHLYCDQAVKNYNRLKPVILEGDLYRLVSPYGSNHTSSMFVGKDKKTAAVFAFDIHPRYAEKTLPVRLQGLNADKKYRVKEINMMPGSGSSLKGNNQVFSGEYLMNVGLDLFTTQQLNSRLIEITEEGHHHHHH	soluble
MSLKPNYLEERICLNVLANSVENAQACYEAAEGHVVLGVLSKNYETDEAAIDDMKKYQAATNNALSVGLGAGDPNQSQMVARLSEVLQPQHVNQVFTGVGASRALLRQDETVINGLVSPTGKVGYVNIATGPLSSGAPAAEVPIETAIKLLKDMGGSSIKYFPMKGLAHKEEYQAVAAACAKYDFYLEPTGGIDLENFEEIVQIAVDAGVKKIIPHVYSSIIDQETGDTRTEDVKTLLTMMKKTLNK	not soluble
MSLKQAIFVMMDQYADWEGAHLSSQLNQMTDWTVKTASNQPEVTSIGGWTTRVDYQISELNPEMTLLVLIGGNAWQHDDPRLTALIQQCLQRKVIVGAICGAVDYLARNGLLTGYRHTGNAQFSWQSFPKYQNPTDFELQQVVVDRQLVTANGTAALSFTSAVLKASGQLTIAAKQALDLQQLGYYDNTETHLNEGHHHHHH	not soluble
MSLKQLFLIIGAPGSGKTTDAELIAKNNSETIAHFSTGDLLRAESAKKTERGLLIEKFTSQGELVPLEIVVETILSAIKSSGKGIILIDGYPRSVEQMQALDKELNAQNEVILKSVIEVEVSENTAKERVLGRSRGADDNEKVFHNRMRVFLDPLGEIQNFYKNKKVYKAIDGERSIEEIVGEMQEYILSFGNEGHHHHHH	soluble
MSLKRALAALVLLGAVAQAQTGHAGHSVGSVSTGVSMPAMSKQMVSALGPLRGRAFDIKFAQLMMDHHQMALDMAGQELSSGKNAQVRAAAKKVVAAQQQEIALMTGWLRKWTGKVYVPQTLPMVLTGTVNTDRWFLTEMLPHHQGAVDMSKLAAGRSGSSEVKKLALSIIRSQTAEMNTYRQLLKTVKEGHHHHHH	soluble
MSLKTALDIIEHAEEHLIEKIAENMHTFGMPSTVGRVLGIIYMNRKPMTLSELSEATGMSKTRMSQVVREMIDANIAEKVFEKGVRKDLYDVEQDYYQTFISLFAANWTKVVSKNKVLYKKLNRELSDLLQRDGLTPEAEEKVNQLLNELKEWLHYYDWLSRLIEFFESEEVFRYVPKTKECSSLKEGGSHHHHHH	soluble

Source: the DeepSol protein solubility set
